According to patent publication US20030235863A1:

Molecular target: FPR-GFP fusion protein (human) (UniProt P21462)
Test: flow cytometry, LRG assembly on DCNi G beads with 30 nM FPR-GFP

Sequence of FPR-GFP fusion protein (human) (P21462 other isoform, or with tags, fused parts or gaps): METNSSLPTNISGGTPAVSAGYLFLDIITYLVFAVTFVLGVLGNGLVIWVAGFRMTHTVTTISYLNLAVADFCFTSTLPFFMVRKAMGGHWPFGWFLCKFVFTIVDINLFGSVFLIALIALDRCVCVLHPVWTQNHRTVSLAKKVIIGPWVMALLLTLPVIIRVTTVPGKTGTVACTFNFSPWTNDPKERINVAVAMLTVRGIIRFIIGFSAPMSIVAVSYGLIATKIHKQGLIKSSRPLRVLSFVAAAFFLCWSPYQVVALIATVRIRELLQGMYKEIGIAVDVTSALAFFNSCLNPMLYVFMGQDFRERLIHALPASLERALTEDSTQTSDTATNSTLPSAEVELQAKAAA

EC50: 5.3 µM
Substance: fML (peptide)
